Holding throughout (experiment): binding, other
Experiment [1] concerns the target T1, SLC45A2 peptide on HLA (human).
T1 peptide: SLYSYFQKV

Another experiment addresses T2, SLC30A8 peptide on HLA (human).
T2 peptide: ILAVDGVLSV

Another experiment has as its target T3, SAGE1 peptide on HLA (human).
T3 peptide: VLIQQLEKA

Experiment [2] concerns the target T4, SMC1B peptide on HLA (human).
T4 peptide: NIQELIHGA

Experiment [3] addresses T5, SLC45A2 peptide on HLA (human).
T5 peptide: RLLGTEFQV

The target of experiment [4] is T6, SMC1B peptide on HLA (human).
T6 peptide: KLQKEVVSI

For a further experiment, the target named is T7, TRPM1 peptide on HLA (human).
T7 peptide: RLGQGVPLV

B1: TCR of SEQ ID NOs 571 and 572 (TCR, V domains shown)
Valpha: KQEVTQIPAALSVPEGENLVLNCSFTDSAIYNLQWFRQDPGKGLTSLLLIQSSQREQTSGRLNASLDKSSGRSTLYIAASQPGDSATYLCAALSYNTDKLIFGTGTRLQVFP
Vbeta: NAGVTQTPKFQVLKTGQSMTLQCAQDMNHNSMYWYRQDPGMGLRLIYYSASEGTTDKGEVPNGYNVSRLNKREFSLRLESAAPSQTSVYFCASRYSPYTEAFFGQGTRLTVV
B1: the binding result in the experiment with SLC45A2 peptide on HLA [1] is “recognises”.

B2: TCR of SEQ ID NOs 551 and 552 (TCR, V domains shown)
Valpha: KQEVTQIPAALSVPEGENLVLNCSFTDSAIYNLQWFRQDPGKGLTSLLLIQSSQREQTSGRLNASLDKSSGRSTLYIAASQPGDSATYLCAVTGNQFYFGTGTSLTVIP
Vbeta: NAGVTQTPKFRVLKTGQSMTLQCAQDMNHEYMYWYRQDPGMGLRLIHYSVGAGITDQGEVPNGYNVSRSTTEDFPLRLLSAAPSQTSVYFCASSTYPVWGGEKMFFGSGTQLSVL
For the molecule B2, the binding result with SLC30A8 peptide on HLA is “recognises”.

B3: TCR of SEQ ID NOs 553 and 554 (TCR, V domains shown)
Valpha: QKEVEQNSEPLSVPEGAIASLNCTYSDRGSQSFFWYRQYSGKSPELIMSIYSNGDKEDGRFTAQLNKASQYVSLLIRDSQPSDSATYLCAVNSQGGKLMFGQGTELSVKP
Vbeta: NAGVTQTPKFRVLKTGQSMTLQCAQDMNHNYMYWYRQDPGMGLRLIHYSVGEGTTAKGEVPDGYNVSRLKKQNFLLGLESAAPSQTSVYFCASSYAPWPGPYEQYVGPGTRLTVT
With B3, in the experiment with SLC30A8 peptide on HLA, the binding result is “recognises”.

B4: TCR of SEQ ID NOs 549 and 550 (TCR, V domains shown)
Valpha: KQEVTQIPAALSVPEGENLVLNCSFTDSAIYNLQWFRQDPGKGLTSLLLIQSSQREQTSGRLNASLDKSSGRSTLYIAASQPGDSATYLCAVSNDYKLSFGAGTTVTVRA
Vbeta: NAGVTQTPKFRVLKTGQSMTLLCAQDMNHEYMYWYRQDPGMGLRLIHYSVGEGTTAKGEVPDGYNVSRLKKQNFLLGLESAAPSQTSVYFCASSYSSRIYNEQFFGPGTRLTVL
On to B4, for which the binding result in the experiment with SAGE1 peptide on HLA is listed as “recognises”.

B5: TCR of SEQ ID NOs 597 and 598 (TCR, V domains shown)
Valpha: KQEVTQIPAALSVPEGENLVLNCSFTDSAIYNLQWFRQDPGKGLTSLLLIQSSQREQTSGRLNASLDKSSGRSTLYIAASQPGDSATYLCAVWSWGKLQFGAGTQVVVTP
Vbeta: NAGVTQTPKFRVLKTGQSMTLLCAQDMNHEYMYWYRQDPGMGLRLIHYSVGEGTTAKGEVPDGYNVSRLKKQNFLLGLESAAPSQTSVYFCASSRGVPEVFFGQGTRLTVV
Consider B5, for which the binding result in the experiment with SMC1B peptide on HLA [2] is on record as “recognises”.

B6: TCR of SEQ ID NOs 565 and 566 (TCR, V domains shown)
Valpha: KQEVTQIPAALSVPEGENLVLNCSFTDSAIYNLQWFRQDPGKGLTSLLLIQSSQREQTSGRLNASLDKSSGRSTLYIAASQPGDSATYLCAVDKAAGNKLTFGGGTRVLVKP
Vbeta: NAGVTQTPKFQVLKTGQSMTLQCAQDMNHNYMYWYRQDPGMGLRLIHYSVGAGITDQGEVPNGYNVSRSTTEDFPLRLLSAAPSQTSVYFCASKNWGTEAFFGQGTRLTVV
For B6, in the experiment with SLC45A2 peptide on HLA [3], the binding result is on record as “recognises”.

B7: TCR of SEQ ID NOs 591 and 592 (TCR, V domains shown)
Valpha: KQEVTQIPAALSVPEGENLVLNCSFTDSAIYNLQWFRQDPGKGLTSLLLIQSSQREQTSGRLNASLDKSSGRSTLYIAASQPGDSATYLCAVDQDSGYALNFGKGTSLLVTP
Vbeta: DTGVSQNPRHKITKRGQNVTFRCDPISEHNRLYWYRQTLGQGPEFLTYFQNEAQLEKSRLLSDRFSAERPKGSFSTLEIQRTEQGDSAMYLCASSLYRSYEQYFGPGTRLTVT
Regarding B7, the binding result with SMC1B peptide on HLA [4] is listed as “recognises”.

B8: TCR of SEQ ID NOs 587 and 588 (TCR, V domains shown)
Valpha: KQEVTQIPAALSVPEGENLVLNCSFTDSAIYNLQWFRQDPGKGLTSLLLIQSSQREQTSGRLNASLDKSSGRSTLYIAASQPGDSATYLCAVSPRSNDYKLSFGAGTTVTVRA
Vbeta: NAGVTQTPKFRILKIGQSMTLQCAQDMNHNYMYWYRQDPGMGLKLIYYSVGAGITDKGEVPNGYNVSRSTTEDFPLRLELAAPSQTSVYFCASSTGSSYNSPLHFGNGTRLTVT
As to B8, the binding result with SMC1B peptide on HLA [4] is “recognises”.

B9: TCR of SEQ ID NOs 573 and 574 (TCR, V domains shown)
Valpha: KQEVTQIPAALSVPEGENLVLNCSFTDSAIYNLQWFRQDPGKGLTSLLLIQSSQREQTSGRLNASLDKSSGRSTLYIAASQPGDSATYLCAVRGYSTLTFGKGTMLLVSP
Vbeta: NAGVTQTPKFQVLKTGQSMTLQCAQDMNHEYMSWYRQDPGMGLRLIHYSVGAGITDQGEVPNGYNVSRSTTEDFPLRLLSAAPSQTSVYFCASSRGQFTEAFFGQGTRLTVV
In the case of B9, the binding result with SLC45A2 peptide on HLA [1] is listed as “recognises”.

B10: TCR of SEQ ID NOs 593 and 594 (TCR, V domains shown)
Valpha: KQEVTQIPAALSVPEGENLVLNCSFTDSAIYNLQWFRQDPGKGLTSLLLIQSSQREQTSGRLNASLDKSSGRSTLYIAASQPGDSATYLCAVRPWGYNQGGKLIFGQGTELSVKP
Vbeta: NAGVTQTPKFQVLKTGQSMTLQCAQDMNHNSMYWYRQDPGMGLRLIYYSASEGTTDKGEVPNGYNVSRSTTEDFPLRLLSAAPSQTSVYFCASSYWGDTEAFFGQGTRLTVV
As to B10, the binding result with SMC1B peptide on HLA [2] is reported as “recognises”.

B11: TCR of SEQ ID NOs 569 and 570 (TCR, V domains shown)
Valpha: KQEVTQIPAALSVPEGENLVLNCSFTDSAIYNLQWFRQDPGKGLTSLLLIQSSQREQTSGRLNASLDKSSGRSTLYIAASQPGDSATYLCAVRDSWGKFQFGAGTQVVVTP
Vbeta: NAGVTQTPKFRVLKTGQSMTLLCAQDMNHEYMYWYRQDPGMGLRLIHYSVGEGTTAKGEVPDGYNVSRLKKQNFLLGLESAAPSQTSVYFCASSLGQGYGLAYDEQFFGPGTRLTVL
For B11, the binding result with SLC45A2 peptide on HLA [1] is on record as “recognises”.

B12: TCR of SEQ ID NOs 603 and 604 (TCR, V domains shown)
Valpha: KQEVTQIPAALSVPEGENLVLNCSFTDSAIYNLQWFRQDPGKGLTSLLLIQSSQREQTSGRLNASLDKSSGRSTLYIAASQPGDSATYLCAVRDSWGKFQFGAGTQVVVTP
Vbeta: NAGVTQTPKFQVLKTGQSMTLQCAQDMNHNSMYWYRQDPGMGLRLIYYSASEGTTDKGEVPNGYNVSRLNKREFSLRLESAAPSQTSVYFCASSEWAWGLGTEAFFGQGTRLTVV
For the molecule B12, the binding result with TRPM1 peptide on HLA is “recognises”.

B13: TCR of SEQ ID NOs 601 and 602 (TCR, V domains shown)
Valpha: KQEVTQIPAALSVPEGENLVLNCSFTDSAIYNLQWFRQDPGKGLTSLLLIQSSQREQTSGRLNASLDKSSGRSTLYIAASQPGDSATYLCAVTDSWGKLQFGAGTQVVVTP
Vbeta: NAGVTQTPKFRVLKTGQSMTLLCAQDMNHEYMYWYRQDPGMGLRLIHYSVGEGTTAKGEVPDGYNVSRLKKQNFLLGLESAAPSQTSVYFCASSYADTYEQYFGPGTRLTVT
In the case of B13, in the experiment with TRPM1 peptide on HLA, the binding result is recorded as “recognises”.

B14: TCR of SEQ ID NOs 599 and 600 (TCR, V domains shown)
Valpha: KQEVTQIPAALSVPEGENLVLNCSFTDSAIYNLQWFRQDPGKGLTSLLLIQSSQREQTSGRLNASLDKSSGRSTLYIAASQPGDSATYLCAVSGSWGKLQFGAGTQVVVTP
Vbeta: NAGVTQTPKFRVLKTGQSMTLLCAQDMNHEYMYWYRQDPGMGLRLIHYSVGEGTTAKGEVPDGYNVSRSTTEDFPLRLLSAAPSQTSVYFCASSLMDRPGEQFFGPGTRLTVL
Turning to B14, the binding result with TRPM1 peptide on HLA is “recognises”.

B15: TCR of SEQ ID NOs 567 and 568 (TCR, V domains shown)
Valpha: KQEVTQIPAALSVPEGENLVLNCSFTDSAIYNLQWFRQDPGKGLTSLLLIQSSQREQTSGRLNASLDKSSGRSTLYIAASQPGDSATYLCAVSGGGADGLTFGKGTHLIIQP
Vbeta: NAGVTQTPKFRILKIGQSMTLQCTQDMNHNYMYWYRQDPGMGLKLIYYSVGAGITDQGEVPNGYNVSRLNKREFSLRLESAAPSQTSVYFCASSEEGWSNSPLHFGNGTRLTVT
Take B15: in the experiment with SLC45A2 peptide on HLA [3], the binding result is given as “recognises”.

B16: TCR of SEQ ID NOs 547 and 548 (TCR, V domains shown)
Valpha: KQEVTQIPAALSVPEGENLVLNCSFTDSAIYNLQWFRQDPGKGLTSLLLIQSSQREQTSGRLNASLDKSSGRSTLYIAASQPGDSATYLCAVRQGYSTLTFGKGTMLLVSP
Vbeta: NAGVTQTPKFQVLKTGQSMTLQCAQDMNHNSMYWYRQDPGMGLRLIYYSASEGTTDKGEVPNGYNVSRLNKREFSLRLESAAPSQTSVYFCASSYSYPLAVGELFFGEGSRLTVL
Turning to B16, the binding result in the experiment with SAGE1 peptide on HLA was “recognises”.

B17: TCR of SEQ ID NOs 555 and 556 (TCR, V domains shown)
Valpha: KQEVTQIPAALSVPEGENLVLNCSFTDSAIYNLQWFRQDPGKGLTSLLLIQSSQREQTSGRLNASLDKSSGRSTLYIAASQPGDSATYLCAVQTGANNLFFGTGTRLTVIP
Vbeta: NAGVTQTPKFRILKIGQSMTLQCTQDMNHNYMYWYRQDPGMGLRLIHYSVGAGITDQGEVPNGYNVSRSTTEDFPLRLLSAAPSQTSVYFCASSTYPVWGGEKLFFGSGTQLSVL
On to B17, for which the binding result in the experiment with SLC30A8 peptide on HLA is “recognises”.

B18: TCR of SEQ ID NOs 563 and 564 (TCR, V domains shown)
Valpha: KQEVTQIPAALSVPEGENLVLNCSFTDSAIYNLQWFRQDPGKGLTSLLLIQSSQREQTSGRLNASLDKSSGRSTLYIAASQPGDSATYLCAVRPTEYGNKLVFGAGTILRVKS
Vbeta: NAGVTQTPKFRVLKTGQSMTLLCAQDMNHEYMYWYRQDPGMGLRLIHYSVGEGTTAKGEVPDGYNVSRLKKQNFLLGLESAAPSQTSVYFCASSNEGGGYTFGSGTRLTVV
As to B18, the binding result in the experiment with SLC45A2 peptide on HLA [3] was “recognises”.

B19: TCR of SEQ ID NOs 595 and 596 (TCR, V domains shown)
Valpha: KQEVTQIPAALSVPEGENLVLNCSFTDSAIYNLQWFRQDPGKGLTSLLLIQSSQREQTSGRLNASLDKSSGRSTLYIAASQPGDSATYLCAVKEGTDSWGKFQFGAGTQVVVTP
Vbeta: NAGVTQTPKFRVLKTGQSMTLLCAQDMNHEYMYWYRQDPGMGLRLIHYSVGEGTTAKGEVPDGYNVSRLKKQNFLLGLESAAPSQTSVYFCASSYPSREAFFGQGTRLTVV
On to B19, for which, in the experiment with SMC1B peptide on HLA [2], the binding result is “recognises”.

B20: TCR of SEQ ID NOs 589 and 590 (TCR, V domains shown)
Valpha: QKEVEQNSGPLSVPEGAIASLNCTYSDRGSQSFFWYRQYSGKSPELIMSIYSNGDKEDGRFTAQLNKASQYVSLLIRDSQPSDSATYLCAVGGRDDKIIFGKGTRLHILP
Vbeta: NAGVTQTPKFQVLKTGQSMTLQCAQDMNHNSMYWYRQDPGMGLRLIYYSASEGTTDKGEVPNGYNVSRSTTEDFPLRLLSAAPSQTSVYFCASSYTDGVNSPLHFGNGTRLTVT
Consider B20, for which the binding result with SMC1B peptide on HLA [4] is on record as “recognises”.

Values taken from patent US20230346885A1 (published 2023).
